Here are results for 1 substance from patent US20230075633A1.

The target in test [1] is human CD3 (human) (UniProt P07766). Kind of test: flow cytometry on human PBMC (ND 12).
The target is the same in test [2]. Kind of test: flow cytometry on Jurkat cells.
In the next test the target is human CEA (human) (UniProt P06731). Kind of test: cell-based or functional assay.
human CEA (human), sequence (P06731 35-702, form in doubt): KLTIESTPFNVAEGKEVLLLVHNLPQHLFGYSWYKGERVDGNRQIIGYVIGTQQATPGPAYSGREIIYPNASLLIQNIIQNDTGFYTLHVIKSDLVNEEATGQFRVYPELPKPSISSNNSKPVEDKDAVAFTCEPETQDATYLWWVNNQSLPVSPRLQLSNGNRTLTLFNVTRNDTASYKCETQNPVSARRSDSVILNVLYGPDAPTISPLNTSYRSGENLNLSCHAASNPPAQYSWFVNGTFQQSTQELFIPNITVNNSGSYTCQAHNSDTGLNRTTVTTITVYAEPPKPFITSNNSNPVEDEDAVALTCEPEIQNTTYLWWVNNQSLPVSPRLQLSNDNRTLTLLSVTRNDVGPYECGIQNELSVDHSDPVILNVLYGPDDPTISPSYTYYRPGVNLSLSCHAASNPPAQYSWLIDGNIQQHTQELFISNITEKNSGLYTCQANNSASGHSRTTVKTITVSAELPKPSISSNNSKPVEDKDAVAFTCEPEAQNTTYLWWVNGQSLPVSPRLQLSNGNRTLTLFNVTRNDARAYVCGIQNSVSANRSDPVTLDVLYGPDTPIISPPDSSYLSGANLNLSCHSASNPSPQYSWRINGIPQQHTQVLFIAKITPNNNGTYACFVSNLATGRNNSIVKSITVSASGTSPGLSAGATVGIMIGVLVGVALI

human CD3 (human), sequence (P07766 23-207): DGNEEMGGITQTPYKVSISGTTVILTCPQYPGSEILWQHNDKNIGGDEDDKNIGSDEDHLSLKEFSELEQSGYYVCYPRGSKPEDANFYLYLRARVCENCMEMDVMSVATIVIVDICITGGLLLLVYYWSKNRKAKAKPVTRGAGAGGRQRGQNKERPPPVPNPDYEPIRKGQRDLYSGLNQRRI

As for Roche CEA-TCB (bispecific antibody), in the test with human CD3 (human) [1], the EC50 came to 0.34 nM. This substance also showed a concentration giving a half-maximal response (EC50) in the test with human CD3 (human) [2] of 0.207 nM. In the test with human CEA (human), this substance gave a cytolysis of LS174T cells by PBMC: EC50 of 0.005 nM; a cytolysis of MKN-45 cells by PBMC, E/T 20:1, 48 h: EC50 against that of CEA/CD3OPT1a3b2b1 BsAb of 50 fold; a cytolysis of MKN-45 cells by PBMC: EC50 of 0.001 nM.
